The values that follow come from PMC5928183, “A Role for the Non-Receptor Tyrosine Kinase Abl2/Arg in Experimental Neuroinflammation” (Journal of Neuroimmune Pharmacology, 2018).

In the assay the target is actin filaments (F-actin) from chicken skeletal muscle (chicken, UniProt P68139 1-377). The assay is described as follows: co-sedimentation; increasing amounts of Arg/Arg V1030M incubated with 1 μM actin filaments; 40 mM Hepes pH 7.25, 150 mM KCl, 2 mM MgCl2, 0.01% NP40, 4.5% glycerol; supernatant and pellet on SDS-PAGE, Coomassie R250 and densitometry; three trials. Particulars: both partners purified.

B1: Arg (Abl2/Arg non-receptor tyrosine kinase), valine at position 1030 (enzyme)
chain: MGQQVGRVGEAPGLQQPQPRGIRGSSAARPSGRRRDPAGRTADAGFNVFTQHDHFASCVEDGFEGDKTGGSSPEVLHRPFGCDAESQALNEAIRWSSKENLLGATESDPNLFVALYDFVASGDNTLSITKGEKLRVLGYNQNGEWSEVRSKNGQGWVPSNYITPVNSLEKHSWYHGPVSRSAAEYLLSSLINGSFLVRESESSPGQLSISLRYEGRVYHYRINTTTDSKVYVTAESRFSTLAELVHHHSTVADGLVTTLHYPAPKCNKPTVYGVSPIHDKWEMERTDITMKHKLGGGQYGEVYVGVWKKYSLTVAVKTFKEDTMEVEEFLKEAAVMKEIKHPNLVQLLGVCTLEPPFYIVTEYMPYGNLLDYLRECSREEVTAVVLLYMATQISSAMEYLEKKNFIHRDLAARNCLVGENHVVKVADFGLSRLMTGDTYTAHAGAKFPIKWTAPESLAYNTFSIKSDVWAFGVLLWEIATYGMSPYPGIDLSQVYDLLEKGYRMEQPEGCPPKVYELMRACWKWSPADRPSFAETHQAFETMFHDSSISEEVAEELGRTASSSSVVPYLPRLPLLPSKTRTLRKQGENKENLDGGLDAAESLASSSAPAGFIRSTQASSGSPALPRKQRDKSPSSLLEDAKETCFTRDRKGGFFSSFMKKRNAPTPPKRSSSFREMENQPHKKYELTGNFSPVASLQNADGFSVAPSQQEPNLVPAKCYGGSFAQRNLCADDDSGGGGGSGTAGGGWSGITGFFTPRLIKKTLGLRAGKPTASDDTSKPFPRSNSTSSMSSGLPEQDRMAMTLPRNCQRSKLQLERTVSTSSQPEENVDRANDMLPKKSEEGAAPARERPKAKLLPRGATALPLRAPDPAITESDSPGVGVAGVAAAPKGKERNGGTRLGVAGVPEDGEQLGWSSPAKAVAVLPTTHNHKVPVLISPTLKHTPADVQLIGTDSQGNKFKLLSEHQVTSSGDKDRPRRVKPKCAPPPPPVMRLLQHPSTCSDPEEEPTAPPAGQHTPETQEGGKKAAPGPVPSSGKPGRPVMPPPQVPLPTSSISPAKMANGTAGTKVALRKTKQAAEKISADKISKEALLECADLLSSAITEPVPNSQLVDTGHQLLDYCSGYVDSIPQTRNKFAFREAVSKLELSLQELQVSSTAAGVPGTNPVLNNLLSCVQEISDVVQR
notes: SNP rs30466582); neither tags nor construct limits are stated here; also called Arg_1030V; Abelson related gene; source: Hi5 cells via baculoviral vectors, purified as previously described (Wang et al., 2001)
On to B1, for which the Kd was 710 ± 500 nM.

B2: Arg V1030M (enzyme)
chain: MGQQVGRVGEAPGLQQPQPRGIRGSSAARPSGRRRDPAGRTADAGFNVFTQHDHFASCVEDGFEGDKTGGSSPEVLHRPFGCDAESQALNEAIRWSSKENLLGATESDPNLFVALYDFVASGDNTLSITKGEKLRVLGYNQNGEWSEVRSKNGQGWVPSNYITPVNSLEKHSWYHGPVSRSAAEYLLSSLINGSFLVRESESSPGQLSISLRYEGRVYHYRINTTTDSKVYVTAESRFSTLAELVHHHSTVADGLVTTLHYPAPKCNKPTVYGVSPIHDKWEMERTDITMKHKLGGGQYGEVYVGVWKKYSLTVAVKTFKEDTMEVEEFLKEAAVMKEIKHPNLVQLLGVCTLEPPFYIVTEYMPYGNLLDYLRECSREEVTAVVLLYMATQISSAMEYLEKKNFIHRDLAARNCLVGENHVVKVADFGLSRLMTGDTYTAHAGAKFPIKWTAPESLAYNTFSIKSDVWAFGVLLWEIATYGMSPYPGIDLSQVYDLLEKGYRMEQPEGCPPKVYELMRACWKWSPADRPSFAETHQAFETMFHDSSISEEVAEELGRTASSSSVVPYLPRLPLLPSKTRTLRKQGENKENLDGGLDAAESLASSSAPAGFIRSTQASSGSPALPRKQRDKSPSSLLEDAKETCFTRDRKGGFFSSFMKKRNAPTPPKRSSSFREMENQPHKKYELTGNFSPVASLQNADGFSVAPSQQEPNLVPAKCYGGSFAQRNLCADDDSGGGGGSGTAGGGWSGITGFFTPRLIKKTLGLRAGKPTASDDTSKPFPRSNSTSSMSSGLPEQDRMAMTLPRNCQRSKLQLERTVSTSSQPEENVDRANDMLPKKSEEGAAPARERPKAKLLPRGATALPLRAPDPAITESDSPGVGVAGVAAAPKGKERNGGTRLGVAGVPEDGEQLGWSSPAKAVAVLPTTHNHKVPVLISPTLKHTPADVQLIGTDSQGNKFKLLSEHQVTSSGDKDRPRRVKPKCAPPPPPVMRLLQHPSTCSDPEEEPTAPPAGQHTPETQEGGKKAAPGPMPSSGKPGRPVMPPPQVPLPTSSISPAKMANGTAGTKVALRKTKQAAEKISADKISKEALLECADLLSSAITEPVPNSQLVDTGHQLLDYCSGYVDSIPQTRNKFAFREAVSKLELSLQELQVSSTAAGVPGTNPVLNNLLSCVQEISDVVQR
notes: SNP rs30466582); neither tags nor construct limits are stated here; also called Arg_1030M; source: Hi5 cells via baculoviral vectors, purified as previously described (Wang et al., 2001)
The molecule B2 displayed a Kd of 860 ± 640 nM.

The term Kd denotes the constant that tells how readily two partners part at equilibrium.
